66 substances from the array DNA melting data of Ke et al. can be followed below.

As usually defined, the Tm is the temperature at the midpoint of the melting transition.

The nature of this data set: melting temperature; melt of duplexes. To be noted: sodium 0.0675 M; strand 1 µM.
Turning to “CGACGTGCCGCATGTGCTG+CAGCACATGGTGCACGTCG ((((((((..(((((((((+)))))))))..))))))))”, the Tm came to 52 °C. As for “CGACGTGCCTCATGTGCTG+CAGCACATCACGCACGTCG ((((((((.(.((((((((+)))))))).).))))))))”, the figure is 46.1 °C; as for “CGACGTGCCTCATGTGCTG+CAGCACATCGCGCACGTCG ((((((((...((((((((+))))))))...))))))))”, 46.6 °C; as for “CGACGTGCAGCATGTGCTG+CAGCACATCGTGCACGTCG (((((((((..((((((((+))))))))..)))))))))”, 44.1 °C. For “CGACGTGCCTAATGTGCTG+CAGCACATAGTGCACGTCG ((((((((...((((((((+))))))))...))))))))” the value was 47.2 °C; for “CGACGTGCTGTATGTGCTG+CAGCACATCCAGCACGTCG ((((((((((.((((((((+)))))))).))))))))))”, 55.5 °C; for “CGACGTGCGAGATGTGCTG+CAGCACATATCGCACGTCG ((((((((((.((((((((+)))))))).))))))))))”, 60.4 °C.

Take “CGACGTGCTACATGTGCTG+CAGCACATGACGCACGTCG ((((((((..(((((((((+)))))))))..))))))))”: the Tm was determined as 50.8 °C. “CGACGTGCGGCATGTGCTG+CAGCACATGCAGCACGTCG ((((((((.((((((((((+)))))))))).))))))))”: the midpoint of thermal melting (Tm) is 63.1 °C.

As for “CGACGTGCATTATGTGCTG+CAGCACATCTTGCACGTCG (((((((((..((((((((+))))))))..)))))))))”, the midpoint of thermal melting (Tm) was determined as 51.1 °C. For “CGACGTGCCTTATGTGCTG+CAGCACATTCGGCACGTCG (((((((((..((((((((+))))))))..)))))))))” the value was 53 °C; for “CGACGTGCGGTATGTGCTG+CAGCACATCCCGCACGTCG ((((((((((.((((((((+)))))))).))))))))))”, 59.9 °C; for “CGACGTGCACCATGTGCTG+CAGCACATCGTGCACGTCG ((((((((((.((((((((+)))))))).))))))))))”, 49.6 °C.

Consider “CGACGTGCCGTATGTGCTG+CAGCACATTCAGCACGTCG ((((((((.(.((((((((+)))))))).).))))))))”, for which the Tm stood at 50.1 °C. For “CGACGTGCGATATGTGCTG+CAGCACATCCGGCACGTCG ((((((((...((((((((+))))))))...))))))))” the value was 49.3 °C. For “CGACGTGCAGAATGTGCTG+CAGCACATCAAGCACGTCG ((((((((...((((((((+))))))))...))))))))” the value was 50.6 °C.

For the substance “CGACGTGCCGGATGTGCTG+CAGCACATGATGCACGTCG ((((((((...((((((((+))))))))...))))))))”, the Tm worked out at 49 °C. In the case of “CGACGTGCCAGATGTGCTG+CAGCACATCTTGCACGTCG ((((((((.((((((((((+)))))))))).))))))))”, the Tm is 57 °C. For “CGACGTGCTCGATGTGCTG+CAGCACATTCAGCACGTCG (((((((((..((((((((+))))))))..)))))))))” the value was 51.9 °C. For “CGACGTGCACAATGTGCTG+CAGCACATGACGCACGTCG ((((((((...((((((((+))))))))...))))))))”, the melting temperature (Tm) stood at 48.2 °C. As for “CGACGTGCTTAATGTGCTG+CAGCACATCTCGCACGTCG ((((((((...((((((((+))))))))...))))))))”, the figure is 47.8 °C; as for “CGACGTGCAAAATGTGCTG+CAGCACATCTTGCACGTCG ((((((((((.((((((((+)))))))).))))))))))”, 54 °C. For the substance “CGACGTGCTTGATGTGCTG+CAGCACATCCTGCACGTCG ((((((((..(((((((((+)))))))))..))))))))”, the Tm was found to be 54.5 °C. For the substance “CGACGTGCTCTATGTGCTG+CAGCACATGATGCACGTCG ((((((((...((((((((+))))))))...))))))))”, the Tm stood at 51.1 °C.

With “CGACGTGCACGATGTGCTG+CAGCACATTCAGCACGTCG ((((((((...((((((((+))))))))...))))))))”, the Tm came out at 45.5 °C. On to “CGACGTGCTCCATGTGCTG+CAGCACATTCTGCACGTCG ((((((((...((((((((+))))))))...))))))))”, for which the midpoint of thermal melting (Tm) amounted to 47.2 °C. For “CGACGTGCGTCATGTGCTG+CAGCACATTCGGCACGTCG ((((((((...((((((((+))))))))...))))))))” the value was 48.7 °C. Take “CGACGTGCCAAATGTGCTG+CAGCACATACCGCACGTCG ((((((((...((((((((+))))))))...))))))))”: the midpoint of thermal melting (Tm) was determined as 47.3 °C. For “CGACGTGCTGTATGTGCTG+CAGCACATCTTGCACGTCG ((((((((...((((((((+))))))))...))))))))” the value was 49.9 °C; for “CGACGTGCTTAATGTGCTG+CAGCACATGAGGCACGTCG ((((((((.(.((((((((+)))))))).).))))))))”, 52.7 °C.

In the case of “CGACGTGCGGCATGTGCTG+CAGCACATACGGCACGTCG ((((((((.(.((((((((+)))))))).).))))))))”, the Tm was 51.5 °C.

As for “CGACGTGCACAATGTGCTG+CAGCACATATCGCACGTCG ((((((((...((((((((+))))))))...))))))))”, the Tm is 44.6 °C. Consider “CGACGTGCCCGATGTGCTG+CAGCACATATTGCACGTCG ((((((((...((((((((+))))))))...))))))))”, for which the Tm was found to be 47.7 °C. In the case of “CGACGTGCTCAATGTGCTG+CAGCACATGTAGCACGTCG (((((((((..((((((((+))))))))..)))))))))”, the Tm was 52.8 °C.

As to “CGACGTGCTACATGTGCTG+CAGCACATCTGGCACGTCG ((((((((.(.((((((((+)))))))).).))))))))”, the midpoint of thermal melting (Tm) stood at 49.9 °C. With “CGACGTGCCTTATGTGCTG+CAGCACATTTGGCACGTCG (((((((((..((((((((+))))))))..)))))))))”, the Tm was determined as 54.3 °C.

Take “CGACGTGCAATATGTGCTG+CAGCACATGACGCACGTCG ((((((((...((((((((+))))))))...))))))))”: the Tm was 48.2 °C. As for “CGACGTGCACTATGTGCTG+CAGCACATTATGCACGTCG (((((((((..((((((((+))))))))..)))))))))”, the figure is 46.2 °C. Consider “CGACGTGCTGTATGTGCTG+CAGCACATTACGCACGTCG ((((((((...((((((((+))))))))...))))))))”, for which the Tm turned out to be 51 °C. For “CGACGTGCTATATGTGCTG+CAGCACATCGAGCACGTCG (((((((((..((((((((+))))))))..)))))))))” the value was 51.5 °C; for “CGACGTGCTTTATGTGCTG+CAGCACATAGAGCACGTCG (((((((((.(((((((((+))))))))).)))))))))”, 55.2 °C.

Regarding “CGACGTGCAAAATGTGCTG+CAGCACATCTCGCACGTCG ((((((((.(.((((((((+)))))))).).))))))))”, the melting temperature (Tm) was determined as 48.6 °C. As to “CGACGTGCCCAATGTGCTG+CAGCACATCGAGCACGTCG ((((((((.(.((((((((+)))))))).).))))))))”, the midpoint of thermal melting (Tm) worked out at 50.3 °C. Consider “CGACGTGCTTCATGTGCTG+CAGCACATCGGGCACGTCG ((((((((...((((((((+))))))))...))))))))”, for which the Tm was 48.9 °C.

Consider “CGACGTGCGGAATGTGCTG+CAGCACATCATGCACGTCG ((((((((...((((((((+))))))))...))))))))”, for which the melting temperature (Tm) amounted to 51.9 °C. Turning to “CGACGTGCATGATGTGCTG+CAGCACATAAAGCACGTCG ((((((((.(.((((((((+)))))))).).))))))))”, the Tm worked out at 50.7 °C. Consider “CGACGTGCGTAATGTGCTG+CAGCACATCGTGCACGTCG ((((((((...((((((((+))))))))...))))))))”, for which the Tm came out at 44.3 °C. Take “CGACGTGCTTCATGTGCTG+CAGCACATATCGCACGTCG ((((((((...((((((((+))))))))...))))))))”: the midpoint of thermal melting (Tm) is 47.5 °C. As to “CGACGTGCCGCATGTGCTG+CAGCACATGTCGCACGTCG ((((((((..(((((((((+)))))))))..))))))))”, the midpoint of thermal melting (Tm) was 54.3 °C. Take “CGACGTGCCGTATGTGCTG+CAGCACATGGCGCACGTCG ((((((((...((((((((+))))))))...))))))))”: the midpoint of thermal melting (Tm) came to 50.3 °C. As for “CGACGTGCGCGATGTGCTG+CAGCACATTATGCACGTCG ((((((((...((((((((+))))))))...))))))))”, the figure is 50 °C. For “CGACGTGCAGTATGTGCTG+CAGCACATCTAGCACGTCG ((((((((...((((((((+))))))))...))))))))” the value was 50.8 °C.

Take “CGACGTGCAGGATGTGCTG+CAGCACATCCTGCACGTCG (((((((((((((((((((+)))))))))))))))))))”: the midpoint of thermal melting (Tm) amounted to 66 °C. Turning to “CGACGTGCCGCATGTGCTG+CAGCACATTGTGCACGTCG ((((((((...((((((((+))))))))...))))))))”, the midpoint of thermal melting (Tm) is 45.7 °C. Take “CGACGTGCCACATGTGCTG+CAGCACATCACGCACGTCG ((((((((...((((((((+))))))))...))))))))”: the Tm was found to be 46.2 °C. As to “CGACGTGCCTGATGTGCTG+CAGCACATCTTGCACGTCG ((((((((..(((((((((+)))))))))..))))))))”, the Tm was 53.7 °C.

Turning to “CGACGTGCCGAATGTGCTG+CAGCACATAGAGCACGTCG ((((((((...((((((((+))))))))...))))))))”, the melting temperature (Tm) came to 49.9 °C. Turning to “CGACGTGCGTCATGTGCTG+CAGCACATTTTGCACGTCG ((((((((...((((((((+))))))))...))))))))”, the Tm amounted to 48.4 °C. As for “CGACGTGCTGTATGTGCTG+CAGCACATGTCGCACGTCG ((((((((...((((((((+))))))))...))))))))”, the figure is 49.3 °C; as for “CGACGTGCGGTATGTGCTG+CAGCACATCTGGCACGTCG ((((((((...((((((((+))))))))...))))))))”, 51.6 °C; as for “CGACGTGCGTAATGTGCTG+CAGCACATCTTGCACGTCG ((((((((...((((((((+))))))))...))))))))”, 49.7 °C.

For the substance “CGACGTGCACGATGTGCTG+CAGCACATGGCGCACGTCG ((((((((.(.((((((((+)))))))).).))))))))”, the melting temperature (Tm) was 50.2 °C. Regarding “CGACGTGCCAGATGTGCTG+CAGCACATTAAGCACGTCG ((((((((...((((((((+))))))))...))))))))”, the Tm is 50.7 °C. With “CGACGTGCATCATGTGCTG+CAGCACATGCTGCACGTCG (((((((((.(((((((((+))))))))).)))))))))”, the Tm was 55.8 °C. For “CGACGTGCGTAATGTGCTG+CAGCACATACCGCACGTCG (((((((((..((((((((+))))))))..)))))))))”, the melting temperature (Tm) stood at 54.2 °C.

With “CGACGTGCGCAATGTGCTG+CAGCACATCCAGCACGTCG ((((((((...((((((((+))))))))...))))))))”, the Tm stood at 51.1 °C.
